Experimental data published in publication PMC4520616, “Biochemical Characterization of the Split Class II Ribonucleotide Reductase from Pseudomonas aeruginosa” (PLoS ONE, 2015).

B1: NrdJb subunit of the split class II ribonucleotide reductase from Pseudomonas aeruginosa (enzyme, UniProt Q9HT77 1-229, looked up)
chain: MSAVKITQKIKGFKVVNEAEEQALAAAAEAASVVQMDETLERPDTLIGATYKIKSPLFEHALYVTINDMVLNAGTAHEQRRPFEIFINSKNMDHFQWIVALTRIMSAVFRKGGDCTFLVEELKAVFDPRGGYLKKGGIYMPSIVAEIGGVLERHLTAIGLLRGPELDEEQRLFLAEKRAAYEAAQGTSKVEPGEGFPAGAQLCGKCNSMAVVQMDGCATCLNCGHSKCG
modifications: biotin linker (0.05 biotin linker/NrdJb monomer) where NrdJb was immobilised on the streptavidin chip for SPR
notes: NrdJb, small subunit of the split class II ribonucleotide reductase (NrdJ) of Pseudomonas aeruginosa; 229 residues in PA; the gene encoding NrdJb was custom synthesised with codon optimisation for E. coli and cloned into pET21; No cleavage of the tag is described; Probably the whole 229-residue protein; also called PA NrdJb; His-tagged NrdJb; source: E. coli BL21(DE3), pET21, codon-optimised …
B2: NrdJa-NrdJb (split class II ribonucleotide reductase, PA NrdJ) (Pseudomonas aeruginosa PAO1) (protein)
chain: MLRTVAGFGRPNNHREVNQRMAKTDARSPRTERGTIALQDASQDIWDKKYRLKSKDGTPVDASVDGTWQRVARALADVEDKASREHWYGRFLWALRNGAIPAGRIISNAGALGHKPATSTINCTVSGTIQDSMDNILEKVHEAGLTLKAGCGIGYEFSTLRPRGAYVSGAGAYTSGPLSFMDIYDKMCFTVSSAGGRRGAQMGTFDVSHPDVREFIRAKREDGRLRQFNLSLLITDQFMQAVEQDADWPLVFPVHVKERDEIDLDDPNAVVWREWPIQDDYVQRADGLVACKVYGQVRARHLWDMIMVSTYDYAEPGFILIDRVNELNNNWWCEAIRATNPCGEQPLPPYGSCLLGSVNLTCFVEQPFGDEARFDWDRFREVVRVFTRMLDNVVEINGLPLEQQRQEILGKRRHGMGFLGLGSTLTLLKLRYGSPEACVFTEEVAREMALVGWEVALELAREKGPAPILAQDYEVTAEMLRKRPEMAADGYKAGDRIRGSVLHAKYSRYMQRVAEHAPELIEALAETGARFTHHSSIAPTGTISLSLANNASNGIEPSFAHHYSRNLIREGRKTKEKVEVYSYELLAYRTLVNAQALPDSDDPARRLPDYFITADSVTPAQHMDIQAAAQKWVDSSISKTANVPTDYPFEDFKDIYRYAWHQGLKGCTTFRFNPEAFQGVLVKESDLEKTRYRFELEDGSVVEFKGNEQVEYDGEIHTAANLFDALKEGYYGKY
notes: E. coli BL21(DE3); NrdJa untagged in pET22, 734 residues; NrdJb 229 residues, codon-optimised, 6xHis in pET21 (C-terminal in results, N-terminal in methods); proposed (NrdJa-NrdJb)2; with Class II (cobalamin-dependent) ribonucleotide-diphosphate reductase subunit, NrdJb
B3: NrdJa subunit of the split class II ribonucleotide reductase from Pseudomonas aeruginosa (enzyme, UniProt Q9HT76 1-734, looked up)
chain: B2 chain
modifications: biotin linker (0.15 biotin linker/NrdJa monomer) only where NrdJa was immobilised on the streptavidin chip for SPR
notes: NrdJa, large subunit of the split class II ribonucleotide reductase (NrdJ) of Pseudomonas aeruginosa; 734 residues in PA; the nrdJa open reading frame was cloned into pET22; Monomer or dimer according to the allosteric effector (GEMMA); also called PA NrdJa

How the values were obtained:
[1] = molecular target: B3; assay: SPR; biotinylated NrdJb immobilised on streptavidin chip, 0-2 uM NrdJa injected; 30 mM Tris-HCl pH 7.0, 10 mM MgCl2, 0.025% P20, 2 mM DTT; with 0.5 mM CTP; steady state fit; apparent Kd; conditions: both partners purified
[2] = molecular target: B3; assay: SPR; biotinylated NrdJb immobilised on streptavidin chip, 0-2 uM NrdJa injected; 30 mM Tris-HCl pH 7.0, 10 mM MgCl2, 0.025% P20, 2 mM DTT; with 0.5 mM dATP + 0.5 mM CTP + 40 uM AdoCbl; steady state fit; apparent Kd; conditions: both partners purified
[3] = molecular target: B3; assay: SPR; biotinylated NrdJb immobilised on streptavidin chip, 0-2 uM NrdJa injected at 30 ul/min; 30 mM Tris-HCl pH 7.0, 10 mM MgCl2, 0.025% P20, 2 mM DTT; no additive; steady state fit; apparent Kd; conditions: both partners purified
[4] = molecular target: B3; assay: SPR; biotinylated NrdJb immobilised on streptavidin chip, 0-2 uM NrdJa injected; 30 mM Tris-HCl pH 7.0, 10 mM MgCl2, 0.025% P20, 2 mM DTT; with 40 uM AdoCbl; steady state fit; apparent Kd; conditions: both partners purified
[5] = molecular target: B3; assay: cell-based or functional assay
[6] = molecular target: B3; assay: SPR; biotinylated NrdJb immobilised on streptavidin chip, 0-2 uM NrdJa injected; 30 mM Tris-HCl pH 7.0, 10 mM MgCl2, 0.025% P20, 2 mM DTT; with 0.5 mM CTP + 40 uM AdoCbl; steady state fit; apparent Kd; conditions: both partners purified
[7] = molecular target: B3; assay: SPR; biotinylated NrdJb immobilised on streptavidin chip, 0-2 uM NrdJa injected; 30 mM Tris-HCl pH 7.0, 10 mM MgCl2, 0.025% P20, 2 mM DTT; with 0.5 mM dATP; steady state fit; apparent Kd; conditions: both partners purified
[8] = substrate: Nc1ccn([C@@H]2O[C@H](COP(=O)(O)OP(=O)(O)OP(=O)(O)O)[C@@H](O)[C@H]2O)c(=O)n1; assay: 3H-CTP reduction assay, Michaelis-Menten fit; type: biochemical, Pseudomonas aeruginosa; conditions: 1 mM ATP, 100 μM AdoCbl, 30 mM DTT, 10 mM MgCl2, pH 7.5, labelled compound
[9] = molecular target: the molecule itself; assay: gas phase electrophoretic macromolecule analysis (GEMMA); 0.02 mg/ml NrdJa in 40 mM ammonium acetate pH 7.8, 0.005% Tween-20, 2 mM DTT; with 50 uM dTTP and 1:1 Mg2+

Binder: B1
- Kd [1]: 360 ± 90 nM
- Kd [2]: 54 ± 12 nM
- Kd [3]: 690 ± 60 nM
- Kd [4]: 680 ± 100 nM
- stoichiometry from the enzyme activity titration (activity leveled off at approximately equimolar concentration of NrdJa and NrdJb) [5]: 1
- Kd [6]: 300 ± 190 nM
- Kd [7]: 91 ± 17 nM

Binder: B2
- Km [8]: 220 ± 60 µM

Binder: B3
- stoichiometry N [9]: 2
